Measured values taken from publication PMC4067742, “Direct Observations of Amyloid β Self-Assembly in Live Cells Provide Insights into Differences in the Kinetics of Aβ(1–40) and Aβ(1–42) Aggregation” (Chemistry & Biology, 2014).

Test system: trypsin
Test: Fluorescence lifetime after trypsin treatment of the labeled peptide
Format: physicochemical
Conditions: trypsin-treated monomeric peptide, cleavage into short fragments; FLIM; mean ± SD
From the text: For the HF488 dye to function as a direct reporter of amyloid formation in vivo, its fluorescence lifetime must respond to the conformational changes associated with amyloid formation but remain largely unaffected by extrinsic factors, such as the solution conditions that the Aβ peptides may encounter in the living cell. […] That is, it is insensitive to pH changes in this range. […] Furthermore, the fluorescence lifetime of the unconjugated HF488 dye (4.0 ± 0.1 ns) is longer than that of the Aβ-conjugated dye (3.7 ± 0.05 ns), perhaps as a result of interactions between the dye and the polypeptide chain in the latter case ([Chen et al., 2010]). […]
All FLIM experiments were carried out using HF488-labeled Aβ peptides, and images were recorded by time-correlated single photon counting (TCSPC) using a confocal microscopy platform built on an Olympus Fluoview FV300 confocal scan unit. […] The excitation beam was reflected onto the sample with a 20/80 broad bandwidth coated beam splitter so that 20% of the excitation light passed on to the sample and 80% of the fluorescence signal was reflected toward the confocal pinhole. The fluorescence light was passed through a 515-nm Semrock long-pass filter (Laser 2000) and passed onto a fast photomultiplier tube (PMC-100, Becker & Hickl). Lifetimes were recorded using TCSPC circuitry (SPC-830, Becker & Hickl). […]

Substance: ^HF488Aβ(1–40): Synthetic 40-residue amyloid β peptide labeled at the N terminus with Hilyte Fluor 488, purchased from Anaspec
- mean fluorescence lifetime after trypsin treatment: 4.0 ± 0.1 ns
